Here are results for six molecules from article PMC4753521, “Real-time and simultaneous monitoring of the phosphorylation and enhanced interaction of p53 and XPC acidic domains with the TFIIH p62 subunit” (Oncogenesis, 2015).

What all share (details): both partners purified
For test [1], the target named is T1, human TFIIH p62-PH domain (residues 1–108) (human, UniProt P32780 1-108).
T1 construct: PH domain of the p62 subunit of the general transcription factor TFIIH, human, residues 1-108; Used 15N- or 13C/15N-labelled in the NMR experiments, unlabelled when added to XPC-AF; also called pleckstrin homology (PH) domain of the p62 subunit of TFIIH
T1 sequence (looked up): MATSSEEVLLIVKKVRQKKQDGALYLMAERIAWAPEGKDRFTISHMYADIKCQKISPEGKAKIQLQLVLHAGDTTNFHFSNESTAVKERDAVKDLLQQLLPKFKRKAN
Kind of test: NMR titration; 1H,15N HSQC perturbation: p53-TAD2 peptides added to 15N-labeled p62-PH at a molar ratio of 1:2.5 (p62:p53); 20 mM potassium phosphate (pH 6.8), 1 mM ATP, 10 mM MgCl2, 5 mM deuterated DTT, 10% D2O; 32 °C.

In test [2] the target is T1, human TFIIH p62-PH domain (residues …). Kind of test: NMR titration; real-time NMR of 150 μl of 50 μM complex of labeled XPC-AF and labeled p62-PH; 2.5 μg CK2 added; 20 mM potassium phosphate (pH 6.8), 1 mM ATP, 10 mM MgCl2, 5 mM deuterated DTT, 10% D2O.
For test [3] the target is unchanged. Kind of test: ITC; VP-ITC; 100 μM XPC peptide in the syringe (25 × 20 μl injections), 2 ml of 10 μM p62-PH in the cell; 20 °C; 20 mM potassium phosphate (pH 6.8).

Non-standard residues stand in square brackets, D forms with d. No end group written: not given here. pT = C[C@@H](OP(=O)(O)O)[C@H](N)C(=O)O; pS = N[C@@H](COP(=O)(O)O)C(=O)O

B1: Thr55-phosphorylated peptide of human p53-TAD2 (residues 41–62) (peptide, UniProt P04637 41-62, looked up)
peptide: DDLMLSPDDIEQWF[pT]EDPGPDE
notes: p53 TAD2, human, residues 41-62; also called Thr55-phosphorylated p53-TAD2; TP; source: synthetic peptide, bought: Sigma Genosys Japan
For the molecule B1, the binding result in test [1] was “binds”.

B2: Ser46, Thr55 double-phosphorylated peptide of human p53-TAD2 (residues 41–62) (peptide, UniProt P04637 41-62, looked up)
peptide: DDLML[pS]PDDIEQWF[pT]EDPGPDE
notes: p53 TAD2, human, residues 41-62; also called Ser46, Thr55 double-phosphorylated p53-TAD2; source: synthetic peptide, bought: Sigma Genosys Japan
For B2, the binding result in test [1] was “binds”.

B3: Ser46-phosphorylated peptide of human p53-TAD2 (residues 41–62) (peptide, UniProt P04637 41-62, looked up)
peptide: DDLML[pS]PDDIEQWFTEDPGPDE
notes: p53 TAD2, human, residues 41-62; also called Ser46-phosphorylated p53-TAD2; source: synthetic peptide, bought: Sigma Genosys Japan
In the case of B3, in test [1], the binding result was “binds”.

B4: human XPC-AF (residues 109–156) phosphorylated at Ser129 by CK2 (domain or fragment, UniProt Q01831 109-156, looked up)
chain: AHHLKRGATMNEDSNEEEEE[pS]ENDWEEVEELSEPVLGDVRESTAFSRS
modifications: also: 13C/15N-labeled
notes: acidic fragment of the nucleotide excision repair factor XPC, human, residues 109-156; 13C/15N-labelled; in the complex with p62-PH phosphorylation of Ser129 reached ~80% at ~2 h; also called Ser129-phosphorylated XPC-AF; source: E. coli Rosetta 2 (DE3) pLysS, purified (Ni-NTA, thrombin digestion, Superdex30); phosphorylated by CK2 in the NMR tube
For B4, the binding result in test [2] is given as “binds”.

B5: unphosphorylated peptide of human XPC (residues 124–142) (peptide, UniProt Q01831 124-142, looked up)
peptide: EEEEESENDWEEVEELSEP
notes: XPC, human, residues 124-142; also called unphosphorylated XPC peptide; source: synthetic peptide, bought: Sigma Genosys Japan
For the molecule B5, the Kd (in general, a measure of binding affinity in units of concentration) in test [3] came out at 0.132 µM.

B6: Ser129-phosphorylated peptide of human XPC (residues 124–142) (peptide, UniProt Q01831 124-142, looked up)
peptide: EEEEE[pS]ENDWEEVEELSEP
notes: XPC, human, residues 124-142; also called Ser129-phosphorylated XPC peptide; source: synthetic peptide, bought: Sigma Genosys Japan
In test [3], B6 returned a dissociation constant (Kd) of 0.041 µM.
